# Source: US20160195541A1
# Where “and” joins values, the source holds several entries; their conditions need not be identical. Identical values can stand only once.
# How the values were obtained:
# [1] = target: membrane-bound human FcγRIIB on Raji cells (human) (UniProt P31994); test: FACS on Raji cells (FACS021), constant aggregated IgG; competitor SM101 IMP 0.0078 µg/µL
# [2] = target: membrane-bound human FcγRIIB on Raji cells (human) (UniProt P31994); test: FACS on Raji cells (FACS021), constant aggregated IgG; competitor SM101 Ref. Std. 0.03125 µg/µL
# [3] = target: membrane-bound human FcγRIIB on Raji cells (human) (UniProt P31994); test: FACS on Raji cells, aggregated Beriglobin at 2.5 (µg/µL); mean of three batches
# [4] = target: membrane-bound human FcγRIIB on Raji cells (human) (UniProt P31994); test: FACS on Raji cells (FACS021), constant aggregated IgG; no competitor (IMP series)
# [5] = target: membrane-bound human FcγRIIB on Raji cells (human) (UniProt P31994); test: FACS: 0.1E6 Raji cells (FcγRIIB) with 2.5 µg aggregated Beriglobin at the stated pH; 1/200 anti-human IgG(H+L)-PE; drawn table, secondary antibody control not subtracted
# [6] = target: membrane-bound human FcγRIIB on Raji cells (human) (UniProt P31994); test: FACS on Raji cells (FACS007), constant aggregated IgG; competitor SM101 0.0625 µg/µL
# [7] = target: membrane-bound human FcγRIIB on Raji cells (human) (UniProt P31994); test: FACS on Raji cells (FACS007), constant aggregated IgG; competitor SM101 0.0156 µg/µL
# [8] = target: membrane-bound human FcγRIIB on Raji cells (human) (UniProt P31994); test: FACS on Raji cells, aggregated Beriglobin at 5.0 (µg/µL); mean of three batches
# [9] = target: membrane-bound human FcγRIIB on Raji cells (human) (UniProt P31994); test: FACS: 0.1E6 Raji cells (FcγRIIB) with 2.5 µg aggregated Beriglobin at the stated pH; 1/200 anti-human IgG(H+L)-PE; secondary antibody alone in this panel 173
# [10] = target: membrane-bound human FcγRIIB on Raji cells (human) (UniProt P31994); test: FACS on Raji cells (FACS021), constant aggregated IgG; competitor SM101 Ref. Std. 0.5 µg/µL
# [11] = target: membrane-bound human FcγRIIB on Raji cells (human) (UniProt P31994); test: FACS: 0.1E6 Raji cells (FcγRIIB) with 2.5 µg aggregated Beriglobin at the stated pH; 1/200 anti-human IgG(H+L)-PE; drawn table, secondary antibody control not subtracted; pH 6.7
# [12] = target: membrane-bound human FcγRIIB on Raji cells (human) (UniProt P31994); test: FACS on Raji cells (FACS007), constant aggregated IgG; competitor SM101 0.0078 µg/µL
# [13] = target: membrane-bound human FcγRIIB on Raji cells (human) (UniProt P31994); test: FACS on Raji cells (FACS021), constant aggregated IgG; competitor SM101 IMP 0.5 µg/µL
# [14] = target: membrane-bound human FcγRIIB on Raji cells (human) (UniProt P31994); test: FACS on Raji cells (FACS007), constant aggregated IgG; competitor SM101 0.5 µg/µL
# [15] = target: membrane-bound human FcγRIIB on Raji cells (human) (UniProt P31994); test: FACS on Raji cells (FACS021), constant aggregated IgG; competitor SM101 IMP 0.0156 µg/µL
# [16] = target: membrane-bound human FcγRIIB on Raji cells (human) (UniProt P31994); test: FACS on Raji cells, aggregated Beriglobin at 5.0 (µg/µL)
# [17] = target: membrane-bound human FcγRIIB on Raji cells (human) (UniProt P31994); test: FACS on Raji cells (FACS007), constant aggregated IgG; competitor SM101 0.125 µg/µL
# [18] = target: membrane-bound human FcγRIIB on Raji cells (human) (UniProt P31994); test: FACS on Raji cells (FACS021), constant aggregated IgG; competitor SM101 Ref. Std. 0.25 µg/µL
# [19] = target: membrane-bound human FcγRIIB on Raji cells (human) (UniProt P31994); test: FACS on Raji cells (FACS021), constant aggregated IgG; competitor SM101 IMP 0.125 µg/µL
# [20] = target: membrane-bound human FcγRIIB on Raji cells (human) (UniProt P31994); test: FACS: 0.1E6 Raji cells (FcγRIIB) with 2.5 µg aggregated Beriglobin at the stated pH; 1/200 anti-human IgG(H+L)-PE; secondary antibody alone in this panel 142
# [21] = target: membrane-bound human FcγRIIB on Raji cells (human) (UniProt P31994); test: FACS on Raji cells (FACS007), constant aggregated IgG, anti-human IgG-PE; no competitor
# [22] = target: membrane-bound human FcγRIIB on Raji cells (human) (UniProt P31994); test: FACS on Raji cells (FACS021), constant aggregated IgG; competitor SM101 IMP 0.0625 µg/µL
# [23] = target: membrane-bound human FcγRIIB on Raji cells (human) (UniProt P31994); test: FACS on Raji cells (FACS021), constant aggregated IgG; competitor SM101 Ref. Std. 0.0625 µg/µL
# [24] = target: membrane-bound human FcγRIIB on Raji cells (human) (UniProt P31994); test: FACS on Raji cells (FACS007), constant aggregated IgG; competitor SM101 0.03125 µg/µL
# [25] = target: membrane-bound human FcγRIIB on Raji cells (human) (UniProt P31994); test: FACS on Raji cells (FACS021), constant aggregated IgG; competitor SM101 IMP 0.03125 µg/µL
# Chain of UniProt P31994 (P31994 43-310): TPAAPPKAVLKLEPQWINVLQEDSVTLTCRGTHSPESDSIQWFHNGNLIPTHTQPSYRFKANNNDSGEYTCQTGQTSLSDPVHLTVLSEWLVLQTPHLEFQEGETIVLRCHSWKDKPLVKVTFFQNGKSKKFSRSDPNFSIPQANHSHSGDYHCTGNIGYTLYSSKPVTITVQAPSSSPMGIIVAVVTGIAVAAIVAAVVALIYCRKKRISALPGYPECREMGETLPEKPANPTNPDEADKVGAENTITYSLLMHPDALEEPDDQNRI
substance,measurement,setting,value
"aggregated human IgG (aggregated Beriglobin, aggregated fraction isolated by size exclusion chromatography) (antibody)",Median Signal,[1],5310
same,Median Signal,[2],1640
same,Median MFI (mean),[3],1280
same,Median Signal,[4],6930
same,Median MFI at pH 7,[5],599
same,Median MFI at pH 7.8,[5],363
same,Median MFI at pH 8,[5],348
same,Median MFI at pH 8.5,[5],246
same,Median MFI at pH 9,[5],244
same,Median MFI at pH 10,[5],177
same,Median Signal,[6],466
same,Median Signal,[7],2270
same,Median MFI (mean),[8],1110
same,Median MFI at pH 7.0 (left panel),[9],599
same,Median MFI at pH 7.8 (left panel),[9],363
same,Median MFI at pH 8.0 (left panel),[9],348
same,Median Signal,[10],182
same,Median MFI at pH 6.7,[11],578
same,Median Signal,[12],3010
same,Median Signal,[13],195
same,Median Signal,[14],238
same,Median Signal,[15],3810
same,Median MFI,[16],1230 and 1140 and 960
same,Median Signal,[17],329
same,Median Signal,[18],269
same,Median Signal,[19],478
same,Median MFI at pH 7.0 (right panel),[20],866
same,Median MFI at pH 8.0 (right panel),[20],316
same,Median MFI at pH 8.5 (right panel),[20],246
same,Median MFI at pH 9.0 (right panel),[20],244
same,Median MFI at pH 10 (right panel),[20],177
same,Median Signal,[21],3880
same,Median Signal,[22],831
same,Median Signal,[23],921
same,Median Signal,[24],1240
same,Median Signal,[25],1780
